Data on four molecules can be found in patent US10189887B2, “Polypeptides and uses thereof for reducing CD95-mediated cell motility” (INSERM (INSTITUT NATIONAL DE LA SANTÉ ET DE LA RECHERCHE …, priority 2014, dated 2019).

Assay [1] deals with CD95-mediated Ca^2+ response. Kind of assay: Calcium response to cl-CD95L in Jurkat cells (Fura2/FuraPE3 video imaging). It counts as cell-based. Conditions: 100 ng/ml cl-CD95L. The method, then: (§1) Cells were loaded with Fura2-AM (1 μM) at resting temperature for 30 min in Hank's Balanced Salt Solution (HBSS). After washing with HBSS, the cells were incubated for 15 min in the absence of Fura2-AM to complete de-esterification of the dye. Cells were placed in a thermostated chamber (37° C.) of an inverted epifluorescence microscope (Olympus IX70) equipped with a ×40, UApo/340-1.15 W water-immersion objective (Olympus), and fluorescence micrograph images were captured at 510 nm and at 12-bit resolution by a fast-scan camera (CoolSNAP fx Monochrome, Photometrics). To minimize UV light exposure, 4×4 binning function was used. Fura2-AM was alternately excited at 340 and 380 nm, and ratios of the resulting images (excitations at 340 and 380 nm and emission filter at 520 nm) were produced at constant intervals (5 s or 10 s according to the stimulus). […] Fluorescent images were pseudocolored using the IMD display mode in MetaFluor and assembled without further manipulation in Photoshop (Adobe). Raw data were acquired with MetaFluor and graphed in Origin (OriginLab). [Ca^2+]i was calculated using the following equation: [Ca^2+]i=Kd(R−Rmin)/(R−Rmax)×Sf2/Sf1, where Kd is the Fura2-AM dissociation constant at the two excitation wavelengths (F340/F380); Rmin is the fluorescence ratio in the presence of minimal calcium, obtained by chelating Ca^2+ with 10 mM EGTA; Rmax is the fluorescence ratio in the presence of excess calcium, obtained by treating cells with 1 μM ionomycin; Sf2 is the fluorescence of the Ca^2+-free form; and Sf1 is the fluorescence of the Ca^2+-bound form of Fura2-AM at excitation wavelengths of 380 and 340 nm, respectively. In some experiments cells were placed in a Ca^2+-free medium consisting of the HBSS described above in which CaCl2 was omitted and 100 μM EGTA was added in order to chelate residual Ca^2+ ions. This medium was added to the cells just before recording to avoid leak of the intracellular calcium stores.
T cells were loaded with Fura-PE3-AM (1 μM) at room temperature for 30 min in Hank's Balanced Salt Solution (HBSS). After washing, the cells were incubated for 15 min in the absence of Fura-PE3-AM to complete de-esterification of the dye. Cells were placed in the temperature controlled chamber (37° C.) of an inverted epifluorescence microscope (Olympus IX70) equipped with an ×40 UApo/340-1.15 W water-immersion objective (Olympus), and fluorescence micrograph images were captured at 510 nm and 12-bit resolution by a fast-scan camera (CoolSNAP fx Monochrome, Photometrics). To minimize UV light exposure, a 4×4 binning function was used. Fura-PE3 was alternately excited at 340 and 380 nm, and the ratios of the resulting images (emission filter at 520 nm) were produced at constant intervals (10 seconds). The Fura-PE3 ratio (Fratio 340/380) images were analyzed offline with Universal Imaging software, including Metafluor and Metamorph. Fratio reflects the intracellular Ca^2+ concentration changes. Each experiment was repeated 3 times, and the average of more than 20 single-cell traces was analyzed.

Assay [2] has as its system CD95-mediated Ca^2+ response. Description: Calcium response to cl-CD95L in activated PBL. It counts as cell-based, human. Conditions: human PBLs pretreated 1 μM, 1 h (positive control); 100 ng/ml cl-CD95L. The method, then: as §1
All cells were purchased from ATCC (Molsheim Cedex, France). T leukemic cell lines CEM, H9 and Jurkat were cultured in RPMI supplemented with 8% heat-inactivated FCS (v/v) and 2 mM L-glutamine at 37° C. in a 5% CO2 incubator. CEM-IRC cell expressing a low amount of plasma membrane CD95 was described in (Beneteau et al., 2007; Beneteau et al., 2008). […]
T cells were loaded with Fura-PE3-AM (1 μM) at room temperature for 30 min in Hank's Balanced Salt Solution (HBSS). […] Cells were placed in the temperature controlled chamber (37° C.) of an inverted epifluorescence microscope (Olympus IX70) equipped with an ×40 UApo/340-1.15 W water-immersion objective (Olympus), and fluorescence micrograph images were captured at 510 nm and 12-bit resolution by a fast-scan camera (CoolSNAP fx Monochrome, Photometrics). […]

Assay [3] concerns Th17 cell accumulation. Kind of assay: In vivo administration of cl-CD95L: cell accumulation in peritoneal cavity and spleen. The arrangement: species or system C57BL/6 mice. Conditions: 24 hours. The procedure:
Female C57BL/6 mice (Harlan UK) aged between 8-10 weeks were placed in groups of 6 and administered IP. Twenty-four hours following injection, mice were sacrificed and periteonial cavities were washed with 5 ml of PBS/2% FCS, blood smears were prepared, and spleens were collected. Blood smears and cytospins of periteonal cells (PECs) were stained with Giemsa and differential counts performed. Single cell suspensions of spleens and PECs were prepared, cell counts performed, CD4+CD62− T-cells were isolated with Miltenyi microbeads and number of cells determined by trypan blue exclusion. For experiments where animals received TAT-mCID or control peptides, 800 μg (40 mg/kg) was injected IP 2 hrs prior to administration of cl-CD95L. All mouse experiments were performed under ethical approval from the University of Nottingham local animal ethics committee and adhering to UK Home Office guidelines under the Project License 40/3412.
Single cell suspensions of spleens and PECs were prepared as described above. RNA was extracted from CD4 T-cells using phenol/chloroform. cDNA was prepared using the Promega GO-Script Reverse Transcription Kit and used in Real-Time PCR. Briefly, cDNA samples were subject to Taqman assay performed on a Roche Lightcycler. Results are reported as expression levels were calculated using the Δct method relative to HPRT.

For assay [4], the system named is Th17 cells. Kind of assay: Endothelial transmigration of CD4 T-cell subsets (Th17, Th1, Treg), Boyden chamber. It counts as cell-based, human. The method, then: Animal experiments were subject to ethical review by the University of Nottingham were appropriate and conducted using PPL 40/3412 in accordance with the UK Home Office guidance and under ASPA (1986). For the generation of murine T-cell subsets, spleens were removed from C57Bl/6 mice and single cell suspensions prepared. CD4^+CD62L^+ naïve cells were isolated using Miltenyi Biotec microbeads. Naïve human CD4^+ T-cells were prepared using the Miltenyi Biotec naïve CD4^+ T-cell isolation kit II, which are sorted produced a 99% pure population of CD4^+CD45RA^+ cells. Purified cells were cultured in complete IMDM media all with α-CD3 (1 μg/ml), α-CD28 (2 μg/ml), and as follows; Th1 cells IL-12 (10 ng/ml) with α-IL-4 (10 μg/ml), Th2 cells IL-4 (10 ng/ml) and α-IFN-γ (10 μg/ml), Th17 cells Il-6 (10 ng/ml), TGF-β1 (2 ng/ml), α-IFN-γ (10 μg/ml) with α-IL-4 (10 μg/ml), and Tregs IL-2 (10 ng/ml) TGF-β1 (5 ng/ml), α-IFN-γ (10 μg/ml) and α-IL-4 (10 μg/ml). Cells were converted to T-cell subsets over five days as outlined above. All cytokines were supplied by PeproTech (London, UK). Mouse CD3 (clone 2C11); human CD3 (UCHT1); mouse CD28 (37.51); human CD28 (CD28.2); mouse IL-4 (11B11); human IL-4 (MP4-25D2); mouse IFN-γ (XMG1.2); human IFN-γ B27 came from BD Pharmigen.
After hydration of the Boyden chamber membranes containing 3 μm pore size membranes (Millipore, Molsheim, France), activated T-lymphocytes (10^6) were added to the top chamber on a confluent monolayer of HUVEC in a low serum (1%)-containing medium. […] In experiments using human sera, 500 μl of serum from either healthy donors or SLE patients was added in the lower reservoir. Cells were cultured for 24 h at 37° C. in a 5% CO2 humidified incubator. Transmigrated cells were counted in the lower reservoir by flow cytometry using a standard of 2.5×10^4 fluorescent beads (Flow-count, Beckman Coulter).
Blocking antibodies were used against E-selectin and ICAM-1 in the CHEMICON® endothelial cell adhesion assay (Millipore). Briefly, after activation of the endothelial cell layer with TNF-α, anti-mouse Ig controls, anti-E-selectin or anti-ICAM-1 were added at final concentrations of 10 μg/ml. Thereafter calcein-AM-stained T-cell subsets were incubated for 24 hours and unbound cells are washed. Cells attached to the endothelium were assessed using fluorescence plate reader.

Regarding `C1CCC[C@H]2CCCN3CC[C@@H](CCCCCC[C@@H]4CCCN5CC[C@@H](CC1)O[C@@H]45)O[C@@H]23` [Xestospongin C, reference compound], the “calcium response to cl-CD95L” value in assay [1] (Jurkat cells pretreated 2 μM, 20 minutes) is “completely blocked the initial component of the calcium response”. In addition, in assay [2], the “CD95-mediated Ca^2+ response” value was “abrogated the CD95-mediated Ca^2+ response”.
In the case of Ryanodine, the “calcium response to cl-CD95L” value in assay [1] (Jurkat cells pretreated 20 minutes with 10 μM Ryanodine, alone or with Xestospongin C) was “did not reduce the initial peak but blocked the plateau phase”.

B1: cl-CD95L: recombinant homotrimeric metalloprotease-cleaved CD95L from supernatant of transfected HEK 293 cells (protein)
chain: QIGHPSPPPEKKELRKVAHLTGKSNSRSMPLEWEDTYGIVLLSGVKYKKGGLVINETGLYFVYSKVYFRGQSCNNLPLSHKVYMRNSKYPQDLVMMEGKMMSYCTTGQMWARSSYLGAVFNLTSADHLYVNVSELSLVNFEESQTFFGLYKL
On to B1, for which the “total cell counts from the PEC and spleen” value in assay [3] (single IP dose cl-CD95L (200 ng) versus vehicle) is “significant increase in the number of lymphocytes”. In assay [3] (single IP dose cl-CD95L (200 ng)), the “Th17 lineage markers (IL-17, IL-23R, CCR6) in recruited activated CD4+ T cells, Q-PCR” value was “induced the recruitment of Th17 cells”. Moreover, in assay [4] (Th1 and Th17 versus Th0 and Th2, cl-CD95L 200 ng/ml), the “transmigration of CD4 T-cell subsets” value is “more efficient to promote the transmigration of Th1 and Th17 lymphocytes”. The “endothelial transmigration of Th17 T cells” value in assay [4] (human Th17 cells, presence or absence of cl-CD95L) is listed as “enhanced endothelial transmigration of Th17 T cells”. Further, the “endothelial transmigration of Treg cells” value in assay [4] (human regulatory T-cells, presence or absence of cl-CD95L) is reported as “failed to induce significant Treg transmigration”.

B2: CD95-Fc: decoy receptor for CD95L (protein)
chain: QVTDINSKGLELRKTVTTVETQNLEGLHHDGQFCHKPCPPGERKARDCTVNGDEPDCVPCQEGKEYTDKAHFSSKCRRCRLCDEGHGLEVEINCTRTQNTKCRCKPNFFCNSTVCEHCDPCTKCEHGIIKECTLTSNTKCKEEGSRSN
modifications: left off: a dimerising Fc or GST
notes: decoy receptor for CD95L
For B2, the “Th17 cell migration induced by SLE sera” value in assay [4] (pre-incubation of SLE sera with decoy receptor, increasing concentrations) was “prevented Th17 cell migration in a dose-dependent manner”.
